This is an account of results in patent US20210054016, “Enzymatic RNA Capping Method” (NEW ENGLAND BIOLABS, INC., published 2021).

The target in this series is Vaccinia capping enzyme (VCE) (Vaccinia virus, UniProt P04298;P04318 P04298:1-844,P04318:1-287). Nature of the series: Cap50, 37 C, 30 min, 500 nM RNA, 1 mM MgCl2; 0.94 at 45 C, 4.08 at 50 C, 30.00 at 55 C.

Regarding GUAGAACUUCGUCGAGUACGCUCAA (ssRNA, 5' triphosphate) [RNA1], the 50% effective concentration (EC50) came out at 3.06 nM.
